Usually Kd stands for the equilibrium constant for the complex coming apart.

The target in assay [1] is phospholipase A2 (Homo sapiens) (UniProt P14555). Nature of the assay: SPR. To be noted: cited from earlier work.
The next assay deals with IGF1 (Homo sapiens) (UniProt P05019). Kind of assay: SPR. To be noted: cited from earlier work.
Assay [2] has as its target vitronectin (Homo sapiens) (UniProt P04004). Nature of the assay: SPR. The following applies: cited from earlier work.
In another assay the target is T1, αvβ3 integrin (Homo sapiens, UniProt P05106+P06756).
T1 construct: gene ITGAV; Purified human αvβ3 integrin protein; with integrin αv subunit (ITGAV)
Nature of the assay: SPR (Biacore […], immobilized αvβ[…]); also 3H-25HC binding with fractalkine-CD competition and biotin-25HC pull-down. (In general: In SPR one partner is held on a chip, and binding of the other changes the refractive index at the surface.)

The target of assay [3] is collagen-I (Homo sapiens) (UniProt P02452). Kind of assay: SPR. To be noted: cited from earlier work.
For assay [4], the target named is purified human αvβ3 integrin protein (human) (UniProt P06756). Nature of the assay: radioligand binding; modified ELISA-type competitive assay: αvβ3 integrin coated on 96-well plate (200 ng/well in PBS with 1 mM MnCl2, 16 h, 4 °C); fractalkine-CD (1000 ng/well in HEPES-Tyrodes buffer) or water added 2 h at room temperature, washed; then 3H-25HC in PBS/0.5% BSA 16 h at 4 °C; bound radioactivity counted. Background: In an ELISA, binding on a coated surface is turned into a signal by an enzyme label.

Take αvβ3 integrin (from UniProt P06756): the results for the Kd (in assay [1]; with IGF1 (Homo sapiens); in assay [2]) were 211 nM, 31 nM and 64 nM, respectively.
With `C[C@H](CCCC(C)(C)O)[C@H]1CC[C@H]2[C@@H]3CC=C4C[C@@H](O)CC[C@]4(C)[C@H]3CC[C@]12C` [25HC, 25-hydroxycholesterol], the dissociation constant Kd on αvβ3 integrin amounted to 10.9 nM.
For α1β1 integrin (from UniProt P56199), the Kd in assay [3] is 24 nM.
For the compound “purified chemokine domain (CD) of recombinant human fractalkine protein (from UniProt P78423 25-397) (domain or fragment)”, the loss of 3H-25HC binding to immobilised αvβ3 integrin after pre-incubation with fractalkine-CD in assay [4] is greater than 60%.

The record behind these values is PMC6443809, “Integrin activation by the lipid molecule 25-hydroxycholesterol induces a proinflammatory response” (Nature Communications, 2019).
